Source: article doi:10.1101/359182, “Capturing auxin response factors syntax using DNA binding models”

Target: T1, MP (ARF5/Monopteros) (UniProt P93024 1-902)
T1 sequence: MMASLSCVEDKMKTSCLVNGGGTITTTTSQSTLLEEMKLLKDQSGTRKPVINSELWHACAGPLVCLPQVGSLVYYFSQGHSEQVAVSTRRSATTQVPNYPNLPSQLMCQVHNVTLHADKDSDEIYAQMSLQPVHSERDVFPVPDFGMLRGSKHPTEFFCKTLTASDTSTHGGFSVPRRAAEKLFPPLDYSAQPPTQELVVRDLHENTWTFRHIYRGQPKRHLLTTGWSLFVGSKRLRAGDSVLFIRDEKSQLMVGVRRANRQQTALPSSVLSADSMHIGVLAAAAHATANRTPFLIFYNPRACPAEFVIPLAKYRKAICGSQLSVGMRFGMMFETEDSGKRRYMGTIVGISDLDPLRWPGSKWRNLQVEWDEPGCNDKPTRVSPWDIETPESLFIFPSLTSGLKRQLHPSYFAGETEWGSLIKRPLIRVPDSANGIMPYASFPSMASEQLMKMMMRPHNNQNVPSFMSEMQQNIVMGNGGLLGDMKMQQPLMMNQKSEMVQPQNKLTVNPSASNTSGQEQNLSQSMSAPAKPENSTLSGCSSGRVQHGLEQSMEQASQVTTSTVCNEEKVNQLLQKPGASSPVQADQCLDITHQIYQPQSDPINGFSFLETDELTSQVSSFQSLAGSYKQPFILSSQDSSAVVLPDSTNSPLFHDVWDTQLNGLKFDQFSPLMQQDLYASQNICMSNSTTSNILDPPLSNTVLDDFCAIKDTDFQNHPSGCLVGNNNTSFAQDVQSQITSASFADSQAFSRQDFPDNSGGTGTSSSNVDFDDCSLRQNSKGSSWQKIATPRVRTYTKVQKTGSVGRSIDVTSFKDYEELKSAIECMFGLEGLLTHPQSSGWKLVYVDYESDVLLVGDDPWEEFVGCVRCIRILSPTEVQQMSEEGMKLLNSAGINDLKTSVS
Test: EMSA; EMSA: 25 mM HEPES pH 7.4, 1 mM EDTA, 2 mM MgCl2, 100 mM KCl, 10% glycerol, 1 mM DTT, 0.5 mM PMSF, 0.1% Triton, 0.045 mg/ml salmon/herring DNA, 20 nM probe, protein 0-500 nM, 1 h at 4 C, 2% agarose in 0.5x TBE
Conditions: protein: recombinant; tags: N-terminal His-MBP-His; label: Cy5-dCTP, Klenow fill-in opposite 5' G; blunt after fill-in of 5' G overhang

B1: IR13 (dsDNA)
DNA 1: GATGCAGCCGACAAAACACATGATTTTGTCGGCTCACAT
DNA 2: ATGTGAGCCGACAAAATCATGTGTTTTGTCGGCTGCATC
binding result: binds
